Assay results: US20230140293A1

How the values were obtained:
[1] = target: CH505 TF chimeric SOSIP.III trimer (CH505TFchim.6R.SOSIP.664V4.1) (HIV-1 (CH505 gp120 / BG505 gp41 chimera)); assay: negative stain EM; 1 to 1 ratio of CH103 and gp140
[2] = target: CH505 transmitted/founder (TF) gp120 (HIV-1); assay: SPR
CH505 M11 gp120 (HIV-1) = assay: ELISA, gp120 on plate
[3] = target: CH505 transmitted/founder (TF) gp120 (HIV-1); assay: ELISA, gp120 on plate
[4] = target: CH505 w020.14 gp120 (HIV-1); assay: ELISA, gp120 on plate
[5] = target: CH505 TF chimeric SOSIP.III trimer (CH505TFchim.6R.SOSIP.664V4.1) (HIV-1 (CH505 gp120 / BG505 gp41 chimera)); assay: kinetics, method not named (FIG. 69); reference CH505 TF gp120
[6] = target: CH0505.w4.3 Env, Env-pseudotyped virus produced in 293T cells (HIV-1); assay: cell-based or functional assay
[7] = target: CH0505.w4.3 Env, pseudotyped virus produced in 293S GnTI- cells (HIV-1); assay: cell-based or functional assay
[8] = target: CH0505TF Env, Env-pseudotyped virus produced in 293T cells (HIV-1); assay: cell-based or functional assay
[9] = target: CH0505TF Env, pseudotyped virus produced in 293S GnTI- cells (HIV-1); assay: cell-based or functional assay
[10] = target: CH0505TF G458C Env, pseudotyped virus produced in 293S GnTI- cells (HIV-1); assay: cell-based or functional assay
[11] = target: CH0505TF G458D Env, pseudotyped virus produced in 293S GnTI- cells (HIV-1); assay: cell-based or functional assay
[12] = target: CH0505TF G458E Env, pseudotyped virus produced in 293S GnTI- cells (HIV-1); assay: cell-based or functional assay
[13] = target: CH0505TF G458F Env, pseudotyped virus produced in 293S GnTI- cells (HIV-1); assay: cell-based or functional assay
[14] = target: CH0505TF G458K Env, pseudotyped virus produced in 293S GnTI- cells (HIV-1); assay: cell-based or functional assay
[15] = target: CH0505TF G458L Env, pseudotyped virus produced in 293S GnTI- cells (HIV-1); assay: cell-based or functional assay
[16] = target: CH0505TF G458R Env, pseudotyped virus produced in 293S GnTI- cells (HIV-1); assay: cell-based or functional assay
[17] = target: CH0505TF G458S Env, pseudotyped virus produced in 293S GnTI- cells (HIV-1); assay: cell-based or functional assay
[18] = target: CH0505TF G458W Env, pseudotyped virus produced in 293S GnTI- cells (HIV-1); assay: cell-based or functional assay
[19] = target: CH0505TF G458Y.N280D Env, pseudotyped virus produced in 293S GnTI- cells (HIV-1); assay: cell-based or functional assay
[20] = target: CH0505TF.G458Y Env, Env-pseudotyped virus produced in 293T cells (HIV-1); assay: cell-based or functional assay
[21] = target: CH0505TF.G458Y Env, pseudotyped virus produced in 293S GnTI- cells (HIV-1); assay: cell-based or functional assay
[22] = target: CH0505TF.gly3.197 Env, Env-pseudotyped virus produced in 293T cells (HIV-1); assay: cell-based or functional assay
[23] = target: CH0505TF.gly3.197 Env, pseudotyped virus produced in 293S GnTI- cells (HIV-1); assay: cell-based or functional assay
[24] = target: CH0505TF.gly3.276 Env, Env-pseudotyped virus produced in 293T cells (HIV-1); assay: cell-based or functional assay
[25] = target: CH0505TF.gly3.276 Env, pseudotyped virus produced in 293S GnTI- cells (HIV-1); assay: cell-based or functional assay
[26] = target: CH0505TF.gly3.461 Env, Env-pseudotyped virus produced in 293T cells (HIV-1); assay: cell-based or functional assay
[27] = target: CH0505TF.gly3.461 Env, pseudotyped virus produced in 293S GnTI- cells (HIV-1); assay: cell-based or functional assay
[28] = target: CH0505TF.gly4 Env, Env-pseudotyped virus produced in 293T cells (HIV-1); assay: cell-based or functional assay
[29] = target: CH0505TF.gly4 Env, pseudotyped virus produced in 293S GnTI- cells (HIV-1); assay: cell-based or functional assay
[30] = target: CH0505TF.gly4.G458Y Env, pseudotyped virus produced in 293S GnTI- cells (HIV-1); assay: cell-based or functional assay
[31] = target: CH0505TF.gly4.G458Y Env, pseudotyped virus produced in 293T cells (HIV-1); assay: cell-based or functional assay
[32] = target: HIV-1 Env 426c, Env-pseudotyped virus produced in 293T cells (HIV-1 clade C strain 426c); assay: cell-based or functional assay
[33] = target: HIV-1 Env 426c.TM (N276D.N460D.N463D), Env-pseudotyped virus produced in 293S GnTI- cells (Man5-enriched) (HIV-1 clade C strain 426c); assay: cell-based or functional assay
[34] = target: HIV-1 Env 426c.TM (N276D.N460D.N463D), Env-pseudotyped virus produced in 293T cells (HIV-1 clade C strain 426c); assay: cell-based or functional assay
[35] = target: HIV-1 Env 426c.TM4 (S278R.G471S.N460D.N463D), Env-pseudotyped virus produced in 293S GnTI- cells (Man5-enriched) (HIV-1 clade C strain 426c); assay: cell-based or functional assay
[36] = target: HIV-1 Env 426c.TM4 (S278R.G471S.N460D.N463D), Env-pseudotyped virus produced in 293T cells (HIV-1 clade C strain 426c); assay: cell-based or functional assay
[37] = target: HIV-1 Env 426c, Env-pseudotyped virus produced in 293S GnTI- cells (Man5-enriched) (HIV-1 clade C strain 426c); assay: cell-based or functional assay
[38] = target: HIV-1 Env 426c.DM (N460D.N463D), Env-pseudotyped virus produced in 293S GnTI- cells (Man5-enriched) (HIV-1 clade C strain 426c); assay: cell-based or functional assay
[39] = target: HIV-1 Env 426c.DM (N460D.N463D), Env-pseudotyped virus produced in 293T cells (HIV-1 clade C strain 426c); assay: cell-based or functional assay
[40] = target: HIV-1 Env 426c.SM (N276D), Env-pseudotyped virus produced in 293S GnTI- cells (Man5-enriched) (HIV-1 clade C strain 426c); assay: cell-based or functional assay
[41] = target: HIV-1 Env 426c.SM (N276D), Env-pseudotyped virus produced in 293T cells (HIV-1 clade C strain 426c); assay: cell-based or functional assay
[42] = target: HIV-1 CH0505TF (CH505 transmitted/founder) Env on Env-pseudotyped virus produced in 293T cells (HIV-1); assay: cell-based or functional assay
[43] = target: HIV-1 CH0505TF Env on Env-pseudotyped virus produced in 293S/GnTI-/- cells (Man5-enrichment) (HIV-1); assay: cell-based or functional assay
[44] = target: HIV-1 CH0505TF.G458Y Env on Env-pseudotyped virus produced in 293S GnTI-/- cells (Man5-enrichment) (HIV-1); assay: cell-based or functional assay
[45] = target: HIV-1 CH0505TF.G458Y Env on Env-pseudotyped virus produced in 293T cells (HIV-1); assay: cell-based or functional assay
[46] = target: HIV-1 CH0505TF.N280D Env on Env-pseudotyped virus produced in 293S GnTI- cells (HIV-1); assay: cell-based or functional assay
[47] = target: HIV-1 CH0505TF.N280D Env on Env-pseudotyped virus produced in 293T cells (HIV-1); assay: cell-based or functional assay
[48] = target: HIV-1 CH0505TF.S365P Env on Env-pseudotyped virus produced in 293S GnTI- cells (HIV-1); assay: cell-based or functional assay
[49] = target: HIV-1 CH0505TF.S365P Env on Env-pseudotyped virus produced in 293T cells (HIV-1); assay: cell-based or functional assay

Row | Substance | IC50 (µg/ml) in TZM-bl [6] | IC50 (µg/ml) in TZM-bl [7] | IC50 (µg/ml) in TZM-bl [8] | IC50 (µg/ml) in TZM-bl [9] | IC50 (µg/ml) in TZM-bl [20] | IC50 (µg/ml) in TZM-bl [21] | IC50 (µg/ml) in TZM-bl [22] | IC50 (µg/ml) in TZM-bl [23] | IC50 (µg/ml) in TZM-bl [24] | IC50 (µg/ml) in TZM-bl [25] | IC50 (µg/ml) in TZM-bl [26] | IC50 (µg/ml) in TZM-bl [27] | IC50 (µg/ml) in TZM-bl [28] | IC50 (µg/ml) in TZM-bl [29] | IC50 (µg/ml) in TZM-bl cells [30] | IC50 (µg/ml) in TZM-bl cells [31] | IC50 (µg/ml) in TZM-bl [32] | IC50 (µg/ml) in TZM-bl [33] | IC50 (µg/ml) in TZM-bl [34] | IC50 (µg/ml) in TZM-bl [35] | other results
1 | CH103 Fab | – | – | – | – | – | – | – | – | – | – | – | – | – | – | – | – | – | – | – | – | Fabs bound per trimer (Fab per trimer) [1]: 3
2 | CH103 lineage unmutated common ancestor (UCA) (antibody) | – | – | – | – | – | – | – | – | – | – | – | – | – | – | – | – | – | – | – | – | Kd [2]: 200 nM; log AUC (CH505 M11 gp120 (HIV-1)): 2.6 log AUC; log AUC [3]: 3.5 log AUC; log AUC [4]: 0.3 log AUC; fold improvement of the off-rate against CH505 TF gp120 [5]: 10 fold
3 | CH235 UCA2 (antibody) | > 25 µg/mL | > 25 µg/mL | > 50 µg/mL | > 50 µg/mL | > 25 µg/mL | 0.16 µg/mL | > 50 µg/mL | > 50 µg/mL | > 50 µg/mL | > 50 µg/mL | > 50 µg/mL | > 50 µg/mL | > 50 µg/mL | > 50 µg/mL | > 10 µg/mL | > 10 µg/mL | > 50 µg/mL | > 50 µg/mL | > 50 µg/mL | > 25 µg/mL | IC50 (µg/ml) in TZM-bl cells [10]: 0.391 µg/mL; IC50 (µg/ml) in TZM-bl cells [11]: > 10 µg/mL; IC50 (µg/ml) in TZM-bl cells [12]: > 10 µg/mL; IC50 (µg/ml) in TZM-bl cells [13]: 0.746 µg/mL; IC50 (µg/ml) in TZM-bl cells [14]: > 10 µg/mL; IC50 (µg/ml) in TZM-bl cells [15]: 0.555 µg/mL; IC50 (µg/ml) in TZM-bl cells [16]: 0.916 µg/mL; IC50 (µg/ml) in TZM-bl cells [17]: > 10 µg/mL; IC50 (µg/ml) in TZM-bl cells [18]: 1.07 µg/mL; IC50 (µg/ml) in TZM-bl cells [19]: > 10 µg/mL; IC50 (µg/ml) in TZM-bl cells [21]: 0.2 µg/mL; IC50 (µg/ml) in TZM-bl [36]: > 25 µg/mL
4 | CH235.12 (antibody) | 0.04 µg/mL | 0.01 µg/mL | 0.04 µg/mL | 0.015 µg/mL | 0.014 µg/mL | 0.003 µg/mL | 0.008 µg/mL | 0.003 µg/mL | 0.001 µg/mL | 0.005 µg/mL | 0.003 µg/mL | 0.002 µg/mL | 0.001 µg/mL | 0.001 µg/mL | < 0.005 µg/mL | < 0.005 µg/mL | 8.95 µg/mL | 0.07 µg/mL | 0.09 µg/mL | 24.2 µg/mL | IC50 (µg/ml) in TZM-bl [37]: > 25 µg/mL; IC50 (µg/ml) in TZM-bl [38]: > 25 µg/mL; IC50 (µg/ml) in TZM-bl [39]: 0.66 µg/mL; IC50 (µg/ml) in TZM-bl [40]: 0.26 µg/mL; IC50 (µg/ml) in TZM-bl [41]: 1.08 µg/mL; IC50 (µg/ml) in TZM-bl [36]: 0.1 µg/mL; IC50 (µg/ml) in TZM-bl [42]: 0.04 µg/mL; IC50 (µg/ml) in TZM-bl [43]: 0.02 µg/mL; IC50 (µg/ml) in TZM-bl [44]: < 0.02 µg/mL; IC50 (µg/ml) in TZM-bl [45]: 0.01 µg/mL; IC50 (µg/ml) in TZM-bl [46]: 0.02 µg/mL; IC50 (µg/ml) in TZM-bl [47]: 0.06 µg/mL; IC50 (µg/ml) in TZM-bl [48]: 0.01 µg/mL; IC50 (µg/ml) in TZM-bl [49]: 0.03 µg/mL
